Assay results reported in paper PMC13577073, “Cryo-EM structure of the glycosylated protein CgeA in the crust of Bacillus subtilis endospores” (The Journal of Microbiology, 2025).
Changes are numbered by the printed parent chain. Numbers in names are those of the source.

Legend:
[1] = biological target: the molecule itself; experiment: SEC-MALS; Superdex 200 Increase 10/300 GL; 20 mM Tris-HCl (pH 8.0), 150 mM NaCl; DAWN HELIOS II
[2] = biological target: the molecule itself; experiment: SEC; wild type and A42C/D97C mutant compared; Superdex 200 column calibrated with reference proteins

B1: CgeA protein from Bacillus subtilis, wild type (natural protein, B. subtilis, UniProt P42089 1-133, looked up)
chain: MSSENAQLKKDLIKAVLSPLFPTATEGGENMDSNLKALLDAAIDQKVDESETVTAESILDPSLPARWIFARITPGTTISIVTDSGDMIGPVVFVAFDQVHGIVFVTQESSVTPAGQATTLIDVDKVESVTFFS
notes: CgeA, spore crust protein of B. subtilis; synthesized cgeA gene subcloned into NcoI/XhoI of pProEx-Hta; also called CgeA (WT); wild-type CgeA; source: E. coli BL21 (DE3), purified (Ni-NTA, TEV cleavage, HiTrap Q, Superdex 200); not shown: His6, N-terminal, cleaved
- stoichiometry N [1]: 6

B2: CgeA A42C/D97C variant (natural protein, B. subtilis, UniProt P42089 1-133, looked up)
chain: B1 chain with A42C, D97C
notes: CgeA of B. subtilis with two cysteine mutations, made from pProEx-Hta-CgeA (WT) by QuikChange; residues 62-109 and 115-133 are modelled in the cryo-EM structure; The cysteines were designed to form a disulfide bond, which could not be seen unambiguously in the map; also called CgeA A42C/D97C mutant; CgeA mutant; source: E. coli BL21 (DE3), purified (Ni-NTA, TEV cleavage, HiTrap Q, Superdex 200); …
- stoichiometry N [2]: 6
